From the supplement of paper PMC7125110
± gives the standard error. For some assays here: Fewer inactive variants are shown than the library holds.

B1: glmS ribozyme (parent)
chain: AUAAAAGCGCCAGAACUACAGAAAUGUAGUUGACGAGGAGGAGGUUUAUCGAAUUUUCGGCGGAUGCCUCCAAA

Experiments:
Conditions in all cases: with glucosamine-6-phosphate
[1] = variants of: B1; experiment: kcat; higher = faster cleavage; RNA array
In short: (§1)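 Glucosamine-6-phosphate (40 μM to 10 mM) in HEPES/KCl/Mg(OAc)2 buffer was flowed over sequenced MiSeq chips, and tiles were imaged over ~14 h. Barcoded ribozyme variants there had been transcribed in situ by E. coli RNA polymerase and were tracked through a hybridised Cy3 probe at 37 °C. One- or two-exponential decay fits to per-tile medians, normalised to baseline and to non-cleaving reference variants, gave kobs. kcat and KM came from weighted Michaelis–Menten fits across concentrations.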

[2] = variants of: B1; experiment: self-cleavage kobs at 2500 uM GlcN6P; higher = faster cleavage; RNA array
In short: as §1

[3] = variants of: B1; experiment: self-cleavage kobs at 10000 uM GlcN6P; higher = faster cleavage; RNA array
In short: as §1

[4] = variants of: B1; experiment: KM; higher = weaker cofactor use; RNA array
In short: as §1

[5] = variants of: B1; experiment: self-cleavage kobs at 640 uM GlcN6P; higher = faster cleavage; RNA array
In short: as §1

[6] = variants of: B1; experiment: self-cleavage kobs at 40 uM GlcN6P; higher = faster cleavage; RNA array
In short: as §1

[7] = variants of: B1; experiment: self-cleavage kobs at 160 uM GlcN6P; higher = faster cleavage; RNA array
In short: as §1

With A39C G51A the kcat [1] was < 1e-05 s⁻¹, the “self-cleavage kobs at 2500 uM GlcN6P” value [2] was < 1e-05 s⁻¹ and the “self-cleavage kobs at 10000 uM GlcN6P” value [3] was < 1e-05 s⁻¹.

For G41U A52G, the kcat [1] was 0.000128 ± 2e-05 s⁻¹, the KM [4] was 1140 ± 560 µM and the “self-cleavage kobs at 640 uM GlcN6P” value [5] was 3.83e-05 ± 8.7e-06 s⁻¹. The “self-cleavage kobs at 2500 uM GlcN6P” value [2] was 0.000113 ± 1.3e-05 s⁻¹ and the “self-cleavage kobs at 10000 uM GlcN6P” value [3] was 0.000107 ± 1.1e-05 s⁻¹.

C16A G29A was tested, and the kcat [1] was 0.00235 ± 0.00058 s⁻¹, the KM [4] was 1790 ± 630 µM and the “self-cleavage kobs at 40 uM GlcN6P” value [6] was 7.39e-05 ± 1.3e-05 s⁻¹. The “self-cleavage kobs at 160 uM GlcN6P” value [7] was 0.000175 ± 3.3e-05 s⁻¹, the “self-cleavage kobs at 640 uM GlcN6P” value [5] was 0.000549 ± 9.9e-05 s⁻¹ and the “self-cleavage kobs at 2500 uM GlcN6P” value [2] was 0.00127 ± 0.00024 s⁻¹. The “self-cleavage kobs at 10000 uM GlcN6P” value [3] was 0.00227 ± 0.00042 s⁻¹.

In the case of G13A U55C, the kcat [1] is reported as 0.000582 ± 0.00014 s⁻¹, the KM [4] is reported as 2910 ± 1300 µM and the “self-cleavage kobs at 160 uM GlcN6P” value [7] is reported as 3.73e-05 ± 1.6e-05 s⁻¹. The “self-cleavage kobs at 640 uM GlcN6P” value [5] was 0.000123 ± 1.6e-05 s⁻¹, the “self-cleavage kobs at 2500 uM GlcN6P” value [2] was 0.000191 ± 3.5e-05 s⁻¹ and the “self-cleavage kobs at 10000 uM GlcN6P” value [3] was 0.000492 ± 4.8e-05 s⁻¹.

With A12C A39G the kcat [1] was 0.0192 ± 0.0069 s⁻¹, the KM [4] was 2230 ± 1000 µM and the “self-cleavage kobs at 40 uM GlcN6P” value [6] was 0.000367 ± 4.7e-05 s⁻¹. The “self-cleavage kobs at 160 uM GlcN6P” value [7] was 0.00113 ± 0.00026 s⁻¹, the “self-cleavage kobs at 640 uM GlcN6P” value [5] was 0.00513 ± 0.0012 s⁻¹ and the “self-cleavage kobs at 2500 uM GlcN6P” value [2] was 0.00799 ± 0.0015 s⁻¹. The “self-cleavage kobs at 10000 uM GlcN6P” value [3] was 0.0245 ± 0.0049 s⁻¹.

C61G C67G was tested, and the kcat [1] was 1.22e-05 ± 1.5e-06 s⁻¹.

With C11U U45G the kcat [1] was 0.000317 ± 6.8e-05 s⁻¹, the “self-cleavage kobs at 2500 uM GlcN6P” value [2] was 0.000172 ± 6.6e-05 s⁻¹ and the “self-cleavage kobs at 10000 uM GlcN6P” value [3] was 0.000222 ± 4.3e-05 s⁻¹.

In the case of U49G C71A, the kcat [1] is reported as 0.000155 ± 8.2e-06 s⁻¹, the KM [4] is reported as 1460 ± 260 µM and the “self-cleavage kobs at 640 uM GlcN6P” value [5] is reported as 5.22e-05 ± 1.8e-05 s⁻¹. For the same variant, the “self-cleavage kobs at 2500 uM GlcN6P” value [2] was 8.83e-05 ± 2.5e-05 s⁻¹ and the “self-cleavage kobs at 10000 uM GlcN6P” value [3] was 0.000137 ± 1.9e-05 s⁻¹.

For C11U G66A U69A, the kcat [1] was 5.61e-05 ± 6.6e-06 s⁻¹, the “self-cleavage kobs at 640 uM GlcN6P” value [5] was 4.24e-05 ± 1.5e-05 s⁻¹ and the “self-cleavage kobs at 2500 uM GlcN6P” value [2] was 4.46e-05 ± 1.3e-05 s⁻¹. For the same variant, the “self-cleavage kobs at 10000 uM GlcN6P” value [3] was 6.32e-05 ± 1.9e-05 s⁻¹.

In the case of C16U G66C, the kcat [1] is reported as 0.000514 ± 9.1e-05 s⁻¹, the KM [4] is reported as 657 ± 250 µM and the “self-cleavage kobs at 160 uM GlcN6P” value [7] is reported as 9.64e-05 ± 2.1e-05 s⁻¹. The “self-cleavage kobs at 640 uM GlcN6P” value [5] was 0.000282 ± 4e-05 s⁻¹, the “self-cleavage kobs at 2500 uM GlcN6P” value [2] was 0.000496 ± 7.3e-05 s⁻¹ and the “self-cleavage kobs at 10000 uM GlcN6P” value [3] was 0.000398 ± 7.3e-05 s⁻¹.

G59C C70G showed a kcat [1] of 1.6e-05 ± 3.6e-06 s⁻¹.

In the case of U55A, the kcat [1] is reported as 0.0533 ± 0.012 s⁻¹, the KM [4] is reported as 1770 ± 530 µM and the “self-cleavage kobs at 40 uM GlcN6P” value [6] is reported as 0.00134 ± 4.9e-05 s⁻¹. For the same variant, the “self-cleavage kobs at 160 uM GlcN6P” value [7] was 0.0039 ± 0.00028 s⁻¹, the “self-cleavage kobs at 640 uM GlcN6P” value [5] was 0.0133 ± 0.00067 s⁻¹ and the “self-cleavage kobs at 2500 uM GlcN6P” value [2] was 0.025 ± 0.0015 s⁻¹. The “self-cleavage kobs at 10000 uM GlcN6P” value [3] was 0.0555 ± 0.0025 s⁻¹.

For A15G C34G C68A, the kcat [1] was 2.44e-05 ± 5.8e-06 s⁻¹.

With A42G A48G the kcat [1] was 9.11e-05 ± 9e-06 s⁻¹ and the “self-cleavage kobs at 10000 uM GlcN6P” value [3] was 3.86e-05 ± 1.7e-05 s⁻¹.

With G63A C70G the kcat [1] was 3.27e-05 ± 9.7e-06 s⁻¹, the “self-cleavage kobs at 640 uM GlcN6P” value [5] was 4.94e-05 ± 1.3e-05 s⁻¹ and the “self-cleavage kobs at 2500 uM GlcN6P” value [2] was 3.19e-05 ± 9.4e-06 s⁻¹.

G41A was tested, and the kcat [1] was 0.00567 ± 0.0025 s⁻¹, the “self-cleavage kobs at 40 uM GlcN6P” value [6] was 0.000349 ± 0.00013 s⁻¹ and the “self-cleavage kobs at 160 uM GlcN6P” value [7] was 0.00036 ± 6.4e-05 s⁻¹. For the same variant, the “self-cleavage kobs at 640 uM GlcN6P” value [5] was 0.000923 ± 0.0001 s⁻¹ and the “self-cleavage kobs at 2500 uM GlcN6P” value [2] was 0.00264 ± 0.00017 s⁻¹.

A6U U30C C68U was tested, and the kcat [1] was 2.13e-05 ± 7.2e-06 s⁻¹ and the “self-cleavage kobs at 640 uM GlcN6P” value [5] was < 1e-05 s⁻¹.

With U31A C71A the kcat [1] was 0.00261 ± 0.001 s⁻¹, the “self-cleavage kobs at 40 uM GlcN6P” value [6] was 8.13e-05 ± 2.1e-05 s⁻¹ and the “self-cleavage kobs at 160 uM GlcN6P” value [7] was 0.000449 ± 0.00013 s⁻¹. The “self-cleavage kobs at 640 uM GlcN6P” value [5] was 0.00049 ± 0.00015 s⁻¹, the “self-cleavage kobs at 2500 uM GlcN6P” value [2] was 0.00162 ± 0.00035 s⁻¹ and the “self-cleavage kobs at 10000 uM GlcN6P” value [3] was 0.00252 ± 0.00057 s⁻¹.
